Two molecules from US20230192820A1 (published 2023) can be followed below.

For this assay, the target named is stabilized trimer of the full ectodomain of SARS-CoV-2 spike protein (residues 1-1208, NIAID VRC7471) (SARS-CoV-2, UniProt P0DTC2 14-1208).

B1: MAb362 IgA1 (monomeric) (antibody, V domains shown)
VH: QVQLVESGGGVVQPGRSLRLSCAASGFSFSSYGMHWVRQAPGKGLEWVAVIWYDGSDKYYADSVKGRFTISRDNSKNTLYLQLNSLRAEDTAIYYCARERYFDWIFDFWGQGTLVTVSS
VL: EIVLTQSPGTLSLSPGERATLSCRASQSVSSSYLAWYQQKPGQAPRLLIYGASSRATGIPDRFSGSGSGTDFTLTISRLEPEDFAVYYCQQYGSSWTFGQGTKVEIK
B1 showed a Kd of 0.17 nM.

B2: MAb362 IgG1 (antibody, V domains shown)
VH: QVQLVESGGGVVQPGRSLRLSCAASGFSFSSYGMHWVRQAPGKGLEWVAVIWYDGSDKYYADSVKGRFTISRDNSKNTLYLQLNSLRAEDTAIYYCARERYFDWIFDFWGQGTLVTVSS
VL: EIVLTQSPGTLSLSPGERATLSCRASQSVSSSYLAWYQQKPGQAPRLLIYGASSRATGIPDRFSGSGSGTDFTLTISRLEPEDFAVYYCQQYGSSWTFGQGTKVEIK
In turn, B2 came in with a dissociation constant (Kd) of 27 nM.
